From US20170209564A1

Columns and labels:
Details in all cases: remark: other sources report otherwise
[1] = molecular target: 11F4; test: ELISA, coated CR6261, P. pastoris medium
[2] = molecular target: 48B10; test: ELISA, coated CR6261, P. pastoris medium
[3] = molecular target: 48D11; test: ELISA, coated CR6261, P. pastoris medium
[4] = molecular target: 56F8; test: ELISA, coated CR6261, P. pastoris medium
[5] = molecular target: 58A11; test: ELISA, coated CR6261, P. pastoris medium
[6] = molecular target: 66C8; test: ELISA, coated CR6261, P. pastoris medium
[7] = molecular target: 67C11; test: ELISA, coated CR6261, P. pastoris medium
[8] = molecular target: 6E12; test: ELISA, coated CR6261, P. pastoris medium
[9] = molecular target: 71D3; test: ELISA, coated CR6261, P. pastoris medium
[10] = molecular target: 74H9; test: ELISA, coated CR6261, P. pastoris medium
[11] = molecular target: 76A10; test: ELISA, coated CR6261, P. pastoris medium
[12] = molecular target: 76D10; test: ELISA, coated CR6261, P. pastoris medium
[13] = molecular target: 78G2; test: ELISA, coated CR6261, P. pastoris medium
[14] = molecular target: 79C2; test: ELISA, coated CR6261, P. pastoris medium
[15] = molecular target: 7B6; test: ELISA, coated CR6261, P. pastoris medium
[16] = molecular target: 89F11; test: ELISA, coated CR6261, P. pastoris medium
[17] = molecular target: 8A10; test: ELISA, coated CR6261, P. pastoris medium
[18] = molecular target: 91F10; test: ELISA, coated CR6261, P. pastoris medium
[19] = molecular target: 27B10; test: ELISA signal over HTRF expression signal, P. pastoris
[20] = molecular target: 29C2; test: as above
[21] = molecular target: 2D9; test: as above
[22] = molecular target: 35H3; test: as above
[23] = molecular target: 48B10; test: as above
[24] = molecular target: 53G10; test: as above
[25] = molecular target: 57B8; test: as above
[26] = molecular target: 58A11; test: as above
[27] = molecular target: 58C8; test: as above
[28] = molecular target: 61A9; test: as above
[29] = molecular target: 69G8; test: as above
[30] = molecular target: 71A4; test: as above
[31] = molecular target: 72D4; test: as above
[32] = molecular target: 74D7; test: as above
[33] = molecular target: 76A10; test: as above
[34] = molecular target: 76D10; test: as above
[35] = molecular target: 78F11; test: as above
[36] = molecular target: 86F1; test: as above
[37] = molecular target: 86H9; test: as above
[38] = molecular target: 88C5; test: as above
[39] = molecular target: 89F11; test: as above
[40] = molecular target: 9C6; test: as above
[41] = molecular target: H1-mini2-cluster1+5+6-GCN4 without leader sequence and with FLAG-thrombin-foldon-HIS; test: ELISA, coated CR6261, HEK293F medium; average of the parental

B1: CR6261 (antibody, V domains shown)
VH: EVQLVESGAEVKKPGSSVKVSCKASGGPFRSYAISWVRQAPGQGPEWMGGIIPIFGTTKYAPKFQGRVTITADDFAGTVYMELSSLRSEDTAMYYCAKHMGYQVRETMDVWGKGTTVTVSS
VL: QSVLTQPPSVSAAPGQKVTISCSGSSSNIGNDYVSWYQQLPGTAPKLLIYDNNKRPSGIPDRFSGSKSGTSATLGITGLQTGDEANYYCATWDRRPTAYVVFGGGTKLTVLG
In the case of B1, the CR6261 binding signal [1] is reported as 151000, the CR6261 binding signal [2] is reported as 103000 and the CR6261 binding signal [3] is reported as 121000. For the same binder, the CR6261 binding signal [4] was 235000, the CR6261 binding signal [5] was 53300 and the CR6261 binding signal [6] was 185000. It also gave a CR6261 binding signal [7] of 209000, a CR6261 binding signal [8] of 373000 and a CR6261 binding signal [9] of 1.57e+06. For the same binder, the CR6261 binding signal [10] was 1.28e+06, the CR6261 binding signal [11] was 137000 and the CR6261 binding signal [12] was 114000. The CR6261 binding signal [13] was 56700, the CR6261 binding signal [14] was 364000 and the CR6261 binding signal [15] was 60400. The CR6261 binding signal [16] was 84800, the CR6261 binding signal [17] was 360000 and the CR6261 binding signal [18] was 14800. The fold increase of ratio over parental SEQ ID NO: 6 [19] was 2.75, the ratio (binding signal/HTRF signal) [19] was 16.3 and the fold increase of ratio over parental SEQ ID NO: 6 [20] was 2.32. For the same binder, the ratio (binding signal/HTRF signal) [20] was 13.8, the fold increase of ratio over parental SEQ ID NO: 6 [21] was 2.76 and the ratio (binding signal/HTRF signal) [21] was 16.4. For the same binder, the fold increase of ratio over parental SEQ ID NO: 6 [22] was 2.94, the ratio (binding signal/HTRF signal) [22] was 17.4 and the fold increase of ratio over parental SEQ ID NO: 6 [23] was 3.16. For the same binder, the ratio (binding signal/HTRF signal) [23] was 18.8, the fold increase of ratio over parental SEQ ID NO: 6 [24] was 2.93 and the ratio (binding signal/HTRF signal) [24] was 17.4. For the same binder, the fold increase of ratio over parental SEQ ID NO: 6 [25] was 1.7, the ratio (binding signal/HTRF signal) [25] was 10.1 and the fold increase of ratio over parental SEQ ID NO: 6 [26] was 1.67. For the same binder, the ratio (binding signal/HTRF signal) [26] was 9.93, the fold increase of ratio over parental SEQ ID NO: 6 [27] was 2.51 and the ratio (binding signal/HTRF signal) [27] was 14.9. It also gave a fold increase of ratio over parental SEQ ID NO: 6 [28] of 5.94, a ratio (binding signal/HTRF signal) [28] of 35.3 and a fold increase of ratio over parental SEQ ID NO: 6 [29] of 8.55. The ratio (binding signal/HTRF signal) [29] was 50.8, the fold increase of ratio over parental SEQ ID NO: 6 [30] was 10.2 and the ratio (binding signal/HTRF signal) [30] was 60.5. The fold increase of ratio over parental SEQ ID NO: 6 [31] was 6.25, the ratio (binding signal/HTRF signal) [31] was 37.1 and the fold increase of ratio over parental SEQ ID NO: 6 [32] was 3.27. For the same binder, the ratio (binding signal/HTRF signal) [32] was 19.4, the fold increase of ratio over parental SEQ ID NO: 6 [33] was 3.37 and the ratio (binding signal/HTRF signal) [33] was 20. For the same binder, the fold increase of ratio over parental SEQ ID NO: 6 [34] was 1.97, the ratio (binding signal/HTRF signal) [34] was 11.7 and the fold increase of ratio over parental SEQ ID NO: 6 [35] was 3.41. It also gave a ratio (binding signal/HTRF signal) [35] of 20.2, a fold increase of ratio over parental SEQ ID NO: 6 [36] of 2.92 and a ratio (binding signal/HTRF signal) [36] of 17.4. For the same binder, the fold increase of ratio over parental SEQ ID NO: 6 [37] was 5.77, the ratio (binding signal/HTRF signal) [37] was 34.3 and the fold increase of ratio over parental SEQ ID NO: 6 [38] was 5.94. For the same binder, the ratio (binding signal/HTRF signal) [38] was 35.3, the fold increase of ratio over parental SEQ ID NO: 6 [39] was 2.42 and the ratio (binding signal/HTRF signal) [39] was 14.4. The fold increase of ratio over parental SEQ ID NO: 6 [40] was 5.54, the ratio (binding signal/HTRF signal) [40] was 32.9 and the CR6261 binding signal [41] was 5.66e+06.
